Numbering of substitutions follows the chain as printed. Names may count otherwise. Where two headings read alike, the source gives them in different places.
T1: human CADM3 (human, UniProt Q8N126 25-398)
T1 construct: Full-length gene expressed transiently on Expi293F cells; also called cell adhesion molecule 3; human CADM3/Expi293F cells
T1 sequence: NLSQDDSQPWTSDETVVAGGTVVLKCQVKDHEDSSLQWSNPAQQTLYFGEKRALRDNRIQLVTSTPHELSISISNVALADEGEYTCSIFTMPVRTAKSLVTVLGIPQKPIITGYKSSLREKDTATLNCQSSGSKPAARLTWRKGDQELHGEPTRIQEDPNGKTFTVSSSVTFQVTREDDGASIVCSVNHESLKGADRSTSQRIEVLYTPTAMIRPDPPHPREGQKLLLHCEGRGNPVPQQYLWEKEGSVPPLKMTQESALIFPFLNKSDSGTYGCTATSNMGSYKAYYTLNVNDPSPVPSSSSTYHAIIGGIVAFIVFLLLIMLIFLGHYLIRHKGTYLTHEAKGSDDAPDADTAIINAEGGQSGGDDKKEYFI

T2: mouse CADM3 (mouse, UniProt Q99N28 23-396)
T2 construct: Full-length gene expressed transiently on Expi293F cells; also called mouse CADM3/Expi293F cells; Mouse CADM3-expressing cells
T2 sequence: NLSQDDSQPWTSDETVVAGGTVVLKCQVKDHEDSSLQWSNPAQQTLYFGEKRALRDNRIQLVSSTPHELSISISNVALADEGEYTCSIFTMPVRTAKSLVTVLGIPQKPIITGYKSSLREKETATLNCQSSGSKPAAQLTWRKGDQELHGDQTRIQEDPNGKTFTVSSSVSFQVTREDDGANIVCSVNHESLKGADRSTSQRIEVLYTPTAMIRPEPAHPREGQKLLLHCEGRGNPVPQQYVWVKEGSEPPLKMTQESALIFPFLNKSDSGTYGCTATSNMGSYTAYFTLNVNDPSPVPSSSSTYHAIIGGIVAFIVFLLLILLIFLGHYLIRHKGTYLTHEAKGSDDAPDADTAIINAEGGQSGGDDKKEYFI

B1: iCADM3_3R1-L11_06 VHH-hG4PE(R409K) (Fc fusion)
chain: QVQLVESGGGLVQAGGSLRLSCAASGSIFSFNAMGWYRQAPGKQRGLVAVITSGGYTNYADSVKGRFTISRDNSKNTVFLQMNSLRAEDTAVYYCNAEGVYSDYVIMNYWGQGTLVTVSS
notes: also called iCADM3-3R1-L11_06 humanized antibody; not shown: Hinge-CH2-CH3 region of the human IgG4 heavy chain constant region (IgG4 variant)
B2: iCADM3_3R1-L11_04 VHH-hG4PE(R409K) (Fc fusion)
chain: B1 chain with Q1E, V12I, F29V, V78L
notes: also called iCADM3-3R1-L11_04 humanized antibody; not shown: Hinge-CH2-CH3 region of the human IgG4 heavy chain constant region (IgG4 variant)
B3: iCADM3_3R1-L11_05 VHH-hG4PE(R409K) (Fc fusion)
chain: B1 chain with Q1E, V12I, A14P, Q44G, G46V, F79Y
notes: also called iCADM3-3R1-L11_05 humanized antibody; not shown: Hinge-CH2-CH3 region of the human IgG4 heavy chain constant region (IgG4 variant)
B4: iCADM3_3R1-L8_04 VHH-hG4PE(R409K) (Fc fusion)
chain: QVQLVESGGGLVQPGGSLRLSCAASGRTFSNYARGWFRQAPGKEREFVAAIDYSGGSTNYADSAKGRFTISRDNSKNTVYLQMNSLRAEDTAVYYCAAPASRRPSWDADGYDYWGQGTLVTVSS
notes: also called iCADM3-3R1-L8_04 humanized antibody; not shown: Hinge-CH2-CH3 region of the human IgG4 heavy chain constant region (IgG4 variant)
B5: iCADM3_3R1-L8_03 VHH-hG4PE(R409K) (Fc fusion)
chain: B4 chain with E44G
notes: also called iCADM3-3R1-L8_03 humanized antibody; not shown: Hinge-CH2-CH3 region of the human IgG4 heavy chain constant region (IgG4 variant)
B6: iCADM3_3R1-L8 VHH-hG4PE(R409K) (Fc fusion)
chain: B4 chain with S75A, R87K, A88P, E89G, L119Q
notes: VHH-Fc antibody; also called anti-CADM3 VHH-Fc antibody iCADM3_3R1-L8; not shown: Hinge-CH2-CH3 region of the human IgG4 heavy chain constant region (IgG4 variant)
B7: iCADM3_3R1-L8_02 VHH-hG4PE(R409K) (Fc fusion)
chain: B4 chain with E6Q, V79L
notes: also called iCADM3-3R1-L8_02 humanized antibody; not shown: Hinge-CH2-CH3 region of the human IgG4 heavy chain constant region (IgG4 variant)
B8: iCADM3_3R1-L8_01 VHH-hG4PE(R409K) (Fc fusion)
chain: B4 chain with E6Q, E44G, V79L
notes: also called iCADM3-3R1-L8_01 humanized antibody; not shown: Hinge-CH2-CH3 region of the human IgG4 heavy chain constant region (IgG4 variant)
B9: iCADM3_3R1-L5 (VHH)
VHH: QVQLVESGGGLVQAGGSLRLSCAASGSIVSVNAMGWYRQAPGKQRELVATITSGGSTNYADSAKGRFTISRDNAKNTMYLQMNSLKPEDTAVYYCNGEFWSRRDTRPPGVVNYWGQGTQVTVSS
notes: also called iCADM3-3R1-L5 antibody; anti-CADM3 VHH antibody (phage clone)

Assays:
human CADM3 [1] = target: T1, human CADM3; experiment: flow cytometry, 10 ug/mL, human CADM3/Expi293F vs parent Expi293F cells
Procedure: (§1) After washing with SB, the cells were suspended in SB, and the fluorescence intensity of each cell was measured using a flow cytometer FACS CANTO II (manufactured by Becton, Dickinson and Company). Note that as a negative control, 10 μg/mL of the anti-AVM antibody was used.
(§2) The detection results were analyzed, and a mean fluorescence intensity (MFI) was calculated using a geometric mean. Further, with respect to the MFI when the concentration of each antibody was 10 μg/mL, the ratio of the MFI (mean fluorescence intensity ratio) between the human CADM3/Expi293F cells and the Expi293F cells (parent cell line) was calculated.
(§3) With respect to the produced humanized anti-CADM3 VHH-Fc antibodies, reactivity with Expi293F cells, human CADM3/Expi293F cells, and mouse CADM3/Expi293F cells was analyzed by the same procedure as in Example 3.

mouse CADM3 [2] = target: T2, mouse CADM3; experiment: flow cytometry, 10 ug/mL, mouse CADM3/Expi293F vs parent Expi293F cells
Procedure: as §1, §2, §3

hCADM3-GST [3] = target: T3, hCADM3-GST (human); experiment: SPR (Biacore T-100), antibody captured, hCADM3-GST as analyte
T3 construct: also called extracellular domain of human CADM3 to which GST was added at the C-terminal side; human CADM3-GST
Procedure: (§4) The affinity of the anti-CADM3 antibodies produced in Example 2 for human CADM3 and mouse CADM3 was measured using Biacore T-100 (GE Healthcare). Each of the antibodies was immobilized on a […] sensor chip using a Human antibody Capture kit, and the binding ability was evaluated using hCADM3-GST and mCADM3-GST produced in Example 4 as analytes.
(§5) With respect to the produced humanized anti-CADM3 antibodies, affinity for CADM3 by surface plasmon resonance detection was evaluated by the same procedure as in Example 6.

mCADM3-GST [4] = target: T4, mCADM3-GST (mouse); experiment: SPR (Biacore T-100), antibody captured, mCADM3-GST as analyte
T4 construct: also called extracellular domain of mouse CADM3 to which GST was added at the C-terminal side; mouse CADM3-GST
Procedure: as §4, §5

mouse CADM3 [5] = target: T2, mouse CADM3; experiment: flow cytometry, 10 ug/mL, mouse CADM3/Expi293F vs parent Expi293F cells; remark: listed apart in the source
Procedure: as §1, §2, §3

human CADM3 [6] = target: T1, human CADM3; experiment: flow cytometry, 10 ug/mL, human CADM3/Expi293F vs parent Expi293F cells; remark: listed apart in the source
Procedure: By using the cells, the reactivity of the antibodies produced in Example 2 with the CADM3-expressing cells was analyzed by a fluorescence activated cell sorting (FACS) method according to the following procedure.
as §1, §2

mouse CADM3 [7] = target: T2, mouse CADM3; experiment: flow cytometry, 10 ug/mL, mouse CADM3/Expi293F vs parent Expi293F cells; remark: listed apart in the source
hCADM3-GST [8] = target: T3, hCADM3-GST; experiment: phage ELISA, hCADM3-GST immobilized
Procedure: (§6) In the ELISA, hCADM3-GST and mCADM3-GST were immobilized (50 ng/50 μL) on MAXISORP (manufactured by NUNC, Inc.), followed by blocking using 0.5% BSA. To each well, each phage clone was added and allowed to react at room temperature for 1 hour, and thereafter, each well was washed 5 times with PBS-T. Subsequently, a biotinylated anti-M13 phage antibody (manufactured by Abcam plc) and horseradish peroxidase-labeled streptavidin (manufactured by Vector Co., Ltd.) were added to each well in an amount of 50 μL, followed by incubation at room temperature for 1 hour.
(§7) After the microplate was washed with PBS-T, a 3,3′,5,5′-tetramethylbenzidine (TMB) chromogenic substrate solution (manufactured by Calbiochem, Inc.) was added to each well, followed by incubation at room temperature. The coloring reaction was stopped by adding a 1 mol/L hydrochloric acid to each well, and an absorbance at a wavelength of 450 nm (reference wavelength: 570 nm) was measured using a microplate reader.

mCADM3-GST [9] = target: T4, mCADM3-GST; experiment: phage ELISA, mCADM3-GST immobilized
Procedure: as §6, §7

Binder | Mean fluorescence intensity ratio (human CADM3 [1]) | Mean fluorescence intensity ratio (mouse CADM3 [2]) | Kd (hCADM3-GST [3]) [nM] | koff (hCADM3-GST [3]) [s⁻¹] | kon (hCADM3-GST [3]) [M⁻¹ s⁻¹] | Kd (mCADM3-GST [4]) [nM] | koff (mCADM3-GST [4]) [s⁻¹] | kon (mCADM3-GST [4]) [M⁻¹ s⁻¹] | Mean fluorescence intensity ratio (mouse CADM3 [5]) | other results
B1 | 33 | 42.2 |  |  |  |  |  |  |  | 
B2 | 22.5 | 26.7 |  |  |  |  |  |  |  | 
B3 | 11.1 | 24.6 |  |  |  |  |  |  |  | 
B4 | 6.2 |  | 5.34 | 0.00078 | 150000 | 5.22 | 0.00064 | 120000 | 9.62 | 
B5 | 5.65 |  | 10.3 | 0.0019 | 190000 | 7.38 | 0.0011 | 150000 | 8.54 | 
B6 |  |  | 12.5 | 0.00051 | 41000 | 4.39 | 0.00063 | 140000 |  | Mean fluorescence intensity ratio (human CADM3 [6]): 5.84; Mean fluorescence intensity ratio (mouse CADM3 [7]): 8.2
B7 | 2.8 |  |  |  |  |  |  |  | 4.83 | 
B8 | 2.21 |  |  |  |  |  |  |  | 3.71 | 
B9 |  |  |  |  |  |  |  |  |  | binding result (hCADM3-GST [8]): binds; binding result (mCADM3-GST [9]): binds

— patent publication US20210147541A1 (Kyowa Kirin, published 2021)
